Measured values as given in the RNAGym collection of RNA variant scans (doi:10.1073/pnas.2313332121).
This sample holds only a part of the variants without activity.

B1: TPR 5TU (parent)
chain: GGAUCUUCUCGAUCUAACAAAAAAGACAAAUCUGCCACAAAGCUUGAGAGCAUCUUCGGAUGCAGAGGCGGCAGCCUUCGGUGGCGCGAUAGCGCCAACGUUCUCAACUAUGACACGCAAAACGCGUGCUCCGUUGAAUGGAGUUUAUCAUG

Variants of: B1
Assay: polymerase ribozyme fitness, log enrichment relative to wild type (log ratio); higher = more active; in vitro selection for triplet polymerase activity
How it was run: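 Genotype fitness is the logarithm of its enrichment divided by wild-type enrichment, using inverse-variance-weighted averages of replicates. That logarithm is base 2. Enrichment was measured by Illumina sequencing of input and output libraries from one triplicate in vitro selection round, with frozen incubation at −7 °C, on PCR-built, transcribed mutant libraries of each subunit of a heterodimeric triplet polymerase ribozyme, retaining genotypes with ≥10 input reads and ≥1 read per output.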

Row | Variant | polymerase ribozyme fitness (log ratio)
1 | A26U G50C | ≤ -4.2
2 | G25C A28G G80C G83A | -4.19
3 | C27A A49C G59C G74C G136U | ≤ -4.2
4 | G25C A26C | -2.94
5 | A23U A24C A30G A39G C116U | ≤ -4.2
6 | A24U A37U G42C C75G | -3.99
7 | A24U G50U U56G G58U C76U A122G | -4.1
8 | A26U C87G | ≤ -4.2
9 | A26U C87U | -1.74
10 | A26G U44G A47C A49C C72G C76G A91C C103G C105G | ≤ -4.2
11 | A24U G50C C57U C79G C118G U148C | ≤ -4.2
12 | A24U G88C U139C U144C | ≤ -4.2
13 | A23U U53G | ≤ -4.2
14 | A26U C43G C85G C132U | ≤ -4.2
15 | A26G A60G | -3.55
16 | A23U U56A A73U G86A C93G C131G U139C | ≤ -4.2
17 | A26U C93U G117U A137C | ≤ -4.2
18 | A26C G50C G71U A73G | ≤ -4.2
19 | A26C C35U G88U C96G C108U G143A | ≤ -4.2
20 | A24G G25A G84A C125G G152A | ≤ -4.2
21 | A24U G84A G94U C96A A121U G126U U135A | -4.1
22 | A23U G80U A91U G143C A150G | ≤ -4.2
23 | A24U G88C C95G C123G | ≤ -4.2
24 | A24U A28U A39C G59C A60U A66G G68C C79G G81A C116G C125U | ≤ -4.2

Row | Variant | polymerase ribozyme fitness (log ratio)
25 | G25A | -1.62
26 | G25C | -2.52
27 | G25U | -1.73
28 | G25C G94A | -3.16
29 | C27A A28G C43A G58C C95U C105G | ≤ -4.2
30 | G25A A30G A41U G50A C87U | ≤ -4.2
31 | A24U G48U G83A | -1.25
32 | A24G C38G A40U A110C | ≤ -4.2
33 | A26U A73U A91U C96G A137C | ≤ -4.2
34 | A26U A28U G81C U90A | ≤ -4.2
35 | G25A U56A | -1.67
36 | A26G C27G A40G C57U C85U C118U | -3.9
37 | A26U U31C A52U A73G C87A A107G | ≤ -4.2
38 | A24G C57A G59U C75A U90G C103G C108U A110C G133U G141C | ≤ -4.2
39 | A23G U44A U56A | ≤ -4.2
40 | A23G U90A C93U C105U C125U | ≤ -4.2
41 | A24U G84U | -2.26
42 | A23U C87G A91G | ≤ -4.2
43 | A24U A41U G62C G70C C85G G152A | ≤ -4.2
44 | A23U A49C U61G C87A | ≤ -4.2
45 | G25U U61G A66C C87U A137G | ≤ -4.2
46 | A26G A37G A40G G58U G65U G74C G88C U101C U151A | ≤ -4.2
47 | A23U A29U C85A A115G G143C | ≤ -4.2
48 | A24U C79U U102G C118U A119G G140A | ≤ -4.2

Row | Variant | polymerase ribozyme fitness (log ratio)
49 | G25U A29U G62U C85G A142C | ≤ -4.2
50 | A26G G58A C105G G117C U127G | ≤ -4.2
51 | G25U A41G C93G A113U A150U | ≤ -4.2
52 | A26U A73U G74U C96A | ≤ -4.2
53 | A26C A37G A60U U90A G100C G141A C149U | ≤ -4.2
54 | A26U U134A | -3.96
55 | A26U A52C C96A | -3.2
56 | C27A A60U A91U A106U | ≤ -4.2
57 | G25U C93A A147G | ≤ -4.2
58 | A24U G46C A60C U102G | ≤ -4.2
59 | A24G C32A C38A U45A C57U A106U C118U | ≤ -4.2
60 | A26C C36G C116A U148G | ≤ -4.2
61 | G25U G48C A52G C54G C57A A60G C96G U101G | ≤ -4.2
62 | A24G A49C C51A U78G G81C | ≤ -4.2
63 | A26U U82A A106C | -3.93
64 | A24U A60U G84U | -2.22
65 | A24C U56G G59C A91U U144C G152U | ≤ -4.2
66 | C27A A40G U55A G83C | ≤ -4.2
67 | A24C C27A U56A G58A C72U A73U C87U | ≤ -4.2
68 | A24C U53A G81C C95U G141A | ≤ -4.2
69 | A26U A40G A41C A49G C51U A52C U90A G92A C95U A97C C118A A137G U151C | ≤ -4.2
70 | G25U A30G C51A C105U G133C | ≤ -4.2
71 | A26U U56A A98G | -1.83
72 | A24U C57A A89U C95U C118U G143U | ≤ -4.2

Row | Variant | polymerase ribozyme fitness (log ratio)
73 | A24U A26C A29U A40U A52G G62U C85U | ≤ -4.2
74 | A26C U61A A64U C85A A110C | ≤ -4.2
75 | A26U U31A G86U A147C | ≤ -4.2
76 | A23U C108A G143C | ≤ -4.2
77 | G25C C69G C96A C99U C118A | ≤ -4.2
78 | G25U C43A G58C A60C A91G | ≤ -4.2
79 | A23U C57U | -3.64
80 | A24C C85U | -3.65
81 | A24U A49U C51U G70A C85U G112U C114A A122U U146C | ≤ -4.2
82 | A23U G42C G88C C105G C116G | ≤ -4.2
83 | A24U C36A U44A C72G C95A A119G G140C | ≤ -4.2
84 | A24U G59U C87U G128A G140U U151C | ≤ -4.2
85 | A24U G34C C79G C87U A137U | ≤ -4.2
86 | A26U A49G U101G A120G A147C | ≤ -4.2
87 | A26C A91G G136C | ≤ -4.2
88 | A26U U31G G42C C93G A137G | ≤ -4.2
89 | A24C A28G U53A U134A | ≤ -4.2
90 | A23U G46U G67U C96G U146G U151A | ≤ -4.2
91 | G25A C27G A30C C32G G68A C87A A107U | ≤ -4.2
92 | A26C G68C A122C U135C U139G U145G | ≤ -4.2
93 | G25C C54U A73G G84A C85A A89C | ≤ -4.2
94 | A26C A52C C85U G117A A142G | -3.88
95 | A26G A29C G50A U90G | ≤ -4.2
96 | G25A A28U A41U A66U G83U U111G C118U | ≤ -4.2

Row | Variant | polymerase ribozyme fitness (log ratio)
97 | A24G A91U | ≤ -4.2
98 | A24C G34A C96G G117C U135G U139A U145A | ≤ -4.2
99 | A23G G83A G94A C125U A147C | ≤ -4.2
100 | A23G G86U C93U A150U | -3.88
101 | A24U A28G A29U C93G C114U | ≤ -4.2
102 | A26G C75A G81A G140A U148C | ≤ -4.2
103 | A24C G81U C87G U104G A110U | ≤ -4.2
104 | A24C G67C C87U A122U A142G | ≤ -4.2
105 | A26U A30U G48A | ≤ -4.2
106 | C27A A29G U33G C35A A60G C93G A97G A120U G133U U134G | ≤ -4.2
107 | G25C A41C A47C G83U A89U A121C C125G A142C C149G A150U G152A | ≤ -4.2
108 | A26C U78A G84A G126C C149G | ≤ -4.2
109 | A26G U55G C87A A115U C118U C149G | ≤ -4.2
110 | A26U U33G G92A C95U U134G | ≤ -4.2
111 | G25C G48A C87U A142G | -4.11
112 | A24U U33G U56A A91G C103A | ≤ -4.2
113 | A24G A52C G68A U151G | ≤ -4.2
114 | A24C A73G G86U C99G C149G | ≤ -4.2
115 | A26U G59C C103G A106C C132U | ≤ -4.2
116 | A24U C72U G84U C118U A142G | -3.98
117 | C27A A119U G133C A137G G140U U144G | ≤ -4.2
118 | A26U G46U G58A A73U C85G U111G | ≤ -4.2
119 | A23U A26U U33G A37C C72G C76A C95G U144C | ≤ -4.2
120 | A24C C32U A39U U90A C95G A138U U144A | ≤ -4.2

Row | Variant | polymerase ribozyme fitness (log ratio)
121 | A23G U56A A97G A115G | -3.42
122 | A24U G83U C85G G126U | ≤ -4.2
123 | A23G U144G | -1.79
124 | A26G A39G G42C A49G U55A U56A U130A U135G | ≤ -4.2
125 | A26U A122G C131A | -3.89
126 | A24G A47G G48A C75U G86A | ≤ -4.2
127 | G25C A60U C93A C95G A137G | ≤ -4.2
128 | A24G G50C C72U C87G U111C | ≤ -4.2
129 | A23U G42C G83A | ≤ -4.2
130 | A26C A137G U144A | -4.13
131 | A26C A37U C79U A106U G143C U146A U148C | ≤ -4.2
132 | A26U A52U U135A | -2.83
133 | G25U U55G A73G A120C C123U | -3.39
134 | A26G C27U A47G C54A U56G G86A | ≤ -4.2
135 | A26U C85U C105U | -1.82
136 | A23U U55A U61C G67A C87U G126U G136C G140U | ≤ -4.2
137 | A24G G92U A122G | ≤ -4.2
138 | A24U U56A G62C | -1.06
139 | G25C A40U C87U C93A C95U | ≤ -4.2
140 | A23U U33A U45A G46A C96U | -4.15
141 | G25U C38U | -1.98
142 | A26G A66U C85A C95A G124C C131A | ≤ -4.2
143 | A24C A49U C87A G92A G140U | ≤ -4.2
144 | C27A C32U G46A G86U C105A | ≤ -4.2

Row | Variant | polymerase ribozyme fitness (log ratio)
145 | G25C U61A C75G A91G A97U | -4.05
146 | G25A C35U G84A C87A A91U C118U A142G | ≤ -4.2
147 | A24G G71C C79G C85A G124U U130G U148C | ≤ -4.2
148 | A23G U44G U53G A91C C95U C103A G117A A121C G126A | ≤ -4.2
149 | A24C C43U C93G G141U | ≤ -4.2
150 | A24U C32G U55G U78A U104G | ≤ -4.2
151 | A24U U148C | -2.14
152 | A26U U55G G86C C96U A97C C99A U102G | ≤ -4.2
153 | A24U A52C | -0.457
154 | A23U A60G G81A G83U | ≤ -4.2
155 | A26U G84C U145G | ≤ -4.2
156 | A24G C35U A89U G92C C125A | ≤ -4.2
157 | G25C A52C G84U | ≤ -4.2
158 | A24U U45A | -3
159 | G25A C72U G80U C93A C114U | ≤ -4.2
160 | A26C A29U G126U A138C | ≤ -4.2
161 | A23G G50C | -4
162 | A26C A52C C54A C114A C129G U134A | ≤ -4.2
163 | A24U G92U | 0.213
164 | A24G G141C G143C | ≤ -4.2
165 | A24U C35U G42C C93U G136C A142G | -4.03
166 | C27A A49C U90G U145C | ≤ -4.2
167 | A26U C125A | -1.8
